The series in a line: label from the status in PepcDB records.

Results on eight sequences are retold here after a protein production outcome set (Wang et al. 2014).

For the sequence “MGLFDFLKKGLQKTKETFFGRVVKLLKGKKLDDETREELEELLIQADVGVETTEYILERLEEKDGDALESLKEIILEILNFDTKLNVPPEPPFVIMVVGVNGTGKTTSCGKLAKMFVDEGKSVVLAAADTFRAAAIEQLKIWGERVGATVISHSEGADPAAVAFDAVAHALARNKDVVIIDTAGRLHTKKNLMEELRKVHRVVKKKIPDAPHETLLVIDATTGQNGLVQAKIFKEAVNVTGIILTKLDGTAKGGITLAIARELGIPIKFIGVGEKAEDLRPFDPEAFVEVLLSE”, the protein production result is “not failed”.

As for “MGLFLEDLAVGDRFDSARHRVEAAAIKAFAGEFDPQPFHLDEEAARHSLFGGLAASGWHTAAITMRLLVTSGLPLAQGIIGAGTELSWPNPTRPGDELHVETTVLAITPSKSRPDRAIVTCQSDTLNQRGEVVQRSTAKVVVFRRPLEHHHHHH”, the protein production result is “not failed”.

Take “MGLFQSDKAAEEIDPPQDVTFVNDEAGANSNTTAAKKTESEKSDTAKADQASSTVMRELYLIDKNGYVVAQTLPLPKSESTAKQALEYLVQGGPVSEILPNGFRAVLPADTTVNVDIKKDGTAIADFSNEFKNYKKEDEQKIVQSVTWTLTQFSSIDKVKLRINGHELKEMPVGGTPISDDLSRKDGINLETAGVNDLTATHPLTVYYLAENEDSEYYVPVTKRIDNSEKDDITAAINELAKGPSKVSGLLTDFSEDVKLVSKPKIKDGRVTLDFNQSIFGSADEKTKMISSEVLNSIVLTLTEQPDVKSVSVKVNGKSELVNEKGEKLTEPVSRPSQVNTGSFLEHHHHHH”: the protein production result is recorded as “not failed”.

As to “MGLGMEIGKLIVAFLVLINPFSALSLYLDLTNGHSTKERRKVARTAAVAVFAVIAVFALIGGALLKVLGISVGSFQVGGGILVLLIAISMMNGNDNPAKQNLGAQPETGQARPARNAGAIAVVPIAIPITIGPGGISTVIIYASAAKTYSDIALIIAAGLVVSAICYAILIVAGKVSRLLGATGLTILNRIMGMMLAAVSVEIIVSGLKTIFPQLAG”, the protein production entry is recorded as “failed”. The entry for “MGLIARLRRWYHLWVWRLRYWWYDTPSGVCAQHWAQGLGVLVFIVQLVRVWVAAALPAPHGAPAQAVYWWVWQLAIAVVAAYVSAALRPKPESVKPQQAQVPTVQDGQAVKHHFGTVWVGDEFILAWKMQGAIPIKTKGAGC” is “failed”. As to “MGLKGYSVGEGGGEIVEVQGGHIIRATGRKDRHSKVFTSKGPRDRRVRLSAHTAIQFYDVQDRLGYDRPSKAVDWLIKKAKTAIDKLELGETTTTTTRQEPVNTKPESPTLVFQRENNDQTQFVAANLDPEDAMKTFFPATTTTNGGGGTNINFQNYPHQDDNNMVSRTTTPPPNLSQDLGLSLHPFQGNNNTVVVPETNNFTTTHFDTFGRISGWNHHDLTMTSSSSSEHQQQEQEERSNGGFMVNHHPHHHHHQPSMMTLLNSQQQQVFLGGQQQQQQRGTLQSSLFPHSFRSWDHHQTTSDHHHHQNQASSMFASSSQYGSHGMMMMQGLSFPNTTRLLHGEEATQPNSSSSPPNSHL”, the protein production result was “failed”. As for “MGLKPSEVIELWPVKIFFIILSVTLFYNFALANGALEKLASHLLYKCRKFPQFLPLAIFFAATIIAGLGAGFYTVLAFMAPITLLLCKKTNMNMIIGGMAANYGALAGANFMTSQSGIIFRSLMENTGISSQTAFSYSSGIFVLTLIIPIAVLGIYTLWNRKSNSIVIEDQKPEPFDKKQKQSIFLIILMMSIVLVFPILHLVFPDVKTISFLNSKIDIAFLAITFSLISLLMKLADEKKVIALVPWRTLIMICGVGMLIALGVKLGIITTLSEWLANNVPVWVIPVLLCLISAIMSVFSSTLGVVAPTLFPIVPALALTSGLNPLVLFICIVVGAQSTAISPFSSGGSLIMASAPADIDKTKFFNQLLFKAIPVGVIAALIAIFALKFVI”, the protein production entry was “failed”. Regarding “MGLKQTLKEIYYIVADKRLLYFSLSLGISTFAYSLLTYYFPIIMTNLDITTFTIGIIYSIISFLYVVFNIPLGAIVDKIGSKNAVTLSALMAVPLFLLMGTLNPLLFIISLVIFESVIRIVNSLGAHRFMLNYTNAGKAFGVFSLITSILAAIGIMLGGYLLQHSVSTLLFTIIAVLFGISGIIRFLELPKDENKVEVKRSLRLGFKYLKEDKKLLLYLLVSILSSGLSLETYYVTIYFVKDLLLPLTFVGVLYSSYALIMAFLPLLFSVILSKRSNFKNLSILIFSNSVIFFLVPLFTNVYILFLLFYAWTVIVAMESIVDYNVAQSVTKPEIRGTQVALISTFVRIFSVFYNAIVGLLFQITPLYSFYFTGFLGILAIFTIKFAEFIGVLK”, the protein production entry is “failed”.
